# Test results from the Human Domainome abundance scans (Beltran et al. 2025).
# ± gives the uncertainty stated by the source.
# B1: Homeobox protein SIX3, residues 212 to 262; numbered along this chain, O95343 (parent)
# chain: CFKERTRSLLREWYLQDPYPNPSKKRELAQATGLTPTQVGNWFKNRRQRDR
# Variants of: B1
# Experiment: abundance fitness (aPCA) (normalised: wild type 0, dead -1); higher = more abundant; growth selection in yeast, the domain comes from the species named
# Conditions: Homo sapiens
row,Variant,abundance fitness
1,CFYERTRSLLREWYLQDPYPNPSKKRELAQATGLTPTQVGNWFKNRRQRDR [K3Y],-0.262 ± 0.095
2,CFKARTRSLLREWYLQDPYPNPSKKRELAQATGLTPTQVGNWFKNRRQRDR [E4A],-0.931 ± 0.2
3,CFKCRTRSLLREWYLQDPYPNPSKKRELAQATGLTPTQVGNWFKNRRQRDR [E4C],-0.685 ± 0.21
4,CFKDRTRSLLREWYLQDPYPNPSKKRELAQATGLTPTQVGNWFKNRRQRDR [E4D],-0.532 ± 0.47
5,CFKFRTRSLLREWYLQDPYPNPSKKRELAQATGLTPTQVGNWFKNRRQRDR [E4F],-0.226 ± 0.31
6,CFKGRTRSLLREWYLQDPYPNPSKKRELAQATGLTPTQVGNWFKNRRQRDR [E4G],-0.532 ± 0.13
7,CFKKRTRSLLREWYLQDPYPNPSKKRELAQATGLTPTQVGNWFKNRRQRDR [E4K],-0.152 ± 0.14
8,CFKLRTRSLLREWYLQDPYPNPSKKRELAQATGLTPTQVGNWFKNRRQRDR [E4L],-0.605 ± 0.17
9,CFKMRTRSLLREWYLQDPYPNPSKKRELAQATGLTPTQVGNWFKNRRQRDR [E4M],-0.178 ± 0.25
10,CFKNRTRSLLREWYLQDPYPNPSKKRELAQATGLTPTQVGNWFKNRRQRDR [E4N],-0.357 ± 0.42
11,CFKRRTRSLLREWYLQDPYPNPSKKRELAQATGLTPTQVGNWFKNRRQRDR [E4R],-0.708 ± 0.06
12,CFKSRTRSLLREWYLQDPYPNPSKKRELAQATGLTPTQVGNWFKNRRQRDR [E4S],-0.136 ± 0.065
13,CFKVRTRSLLREWYLQDPYPNPSKKRELAQATGLTPTQVGNWFKNRRQRDR [E4V],-0.651 ± 0.071
14,CFKWRTRSLLREWYLQDPYPNPSKKRELAQATGLTPTQVGNWFKNRRQRDR [E4W],-0.684 ± 0.16
15,CFKYRTRSLLREWYLQDPYPNPSKKRELAQATGLTPTQVGNWFKNRRQRDR [E4Y],-0.441 ± 0.28
16,CFKEATRSLLREWYLQDPYPNPSKKRELAQATGLTPTQVGNWFKNRRQRDR [R5A],-0.075 ± 0.09
17,CFKECTRSLLREWYLQDPYPNPSKKRELAQATGLTPTQVGNWFKNRRQRDR [R5C],-0.359 ± 0.39
18,CFKEDTRSLLREWYLQDPYPNPSKKRELAQATGLTPTQVGNWFKNRRQRDR [R5D],-0.18 ± 0.16
19,CFKEETRSLLREWYLQDPYPNPSKKRELAQATGLTPTQVGNWFKNRRQRDR [R5E],-0.098 ± 0.095
20,CFKEGTRSLLREWYLQDPYPNPSKKRELAQATGLTPTQVGNWFKNRRQRDR [R5G],-0.102 ± 0.083
21,CFKEHTRSLLREWYLQDPYPNPSKKRELAQATGLTPTQVGNWFKNRRQRDR [R5H],-0.522 ± 0.21
22,CFKEITRSLLREWYLQDPYPNPSKKRELAQATGLTPTQVGNWFKNRRQRDR [R5I],-0.418 ± 0.23
23,CFKEKTRSLLREWYLQDPYPNPSKKRELAQATGLTPTQVGNWFKNRRQRDR [R5K],-0.394 ± 0.31
24,CFKELTRSLLREWYLQDPYPNPSKKRELAQATGLTPTQVGNWFKNRRQRDR [R5L],-0.283 ± 0.1
25,CFKEMTRSLLREWYLQDPYPNPSKKRELAQATGLTPTQVGNWFKNRRQRDR [R5M],-0.16 ± 0.1

row,Variant,abundance fitness
1,CFKENTRSLLREWYLQDPYPNPSKKRELAQATGLTPTQVGNWFKNRRQRDR [R5N],-0.225 ± 0.15
2,CFKEPTRSLLREWYLQDPYPNPSKKRELAQATGLTPTQVGNWFKNRRQRDR [R5P],-0.329 ± 0.13
3,CFKEQTRSLLREWYLQDPYPNPSKKRELAQATGLTPTQVGNWFKNRRQRDR [R5Q],-0.317 ± 0.093
4,CFKESTRSLLREWYLQDPYPNPSKKRELAQATGLTPTQVGNWFKNRRQRDR [R5S],0.187 ± 0.089
5,CFKETTRSLLREWYLQDPYPNPSKKRELAQATGLTPTQVGNWFKNRRQRDR [R5T],-0.148 ± 0.091
6,CFKEVTRSLLREWYLQDPYPNPSKKRELAQATGLTPTQVGNWFKNRRQRDR [R5V],0.003 ± 0.059
7,CFKEWTRSLLREWYLQDPYPNPSKKRELAQATGLTPTQVGNWFKNRRQRDR [R5W],-0.369 ± 0.12
8,CFKEYTRSLLREWYLQDPYPNPSKKRELAQATGLTPTQVGNWFKNRRQRDR [R5Y],-0.455 ± 0.24
9,CFKERARSLLREWYLQDPYPNPSKKRELAQATGLTPTQVGNWFKNRRQRDR [T6A],-0.268 ± 0.078
10,CFKERCRSLLREWYLQDPYPNPSKKRELAQATGLTPTQVGNWFKNRRQRDR [T6C],-0.533 ± 0.2
11,CFKERERSLLREWYLQDPYPNPSKKRELAQATGLTPTQVGNWFKNRRQRDR [T6E],-0.287 ± 0.061
12,CFKERFRSLLREWYLQDPYPNPSKKRELAQATGLTPTQVGNWFKNRRQRDR [T6F],-0.504 ± 0.059
13,CFKERGRSLLREWYLQDPYPNPSKKRELAQATGLTPTQVGNWFKNRRQRDR [T6G],-0.192 ± 0.082
14,CFKERHRSLLREWYLQDPYPNPSKKRELAQATGLTPTQVGNWFKNRRQRDR [T6H],0.086 ± 0.31
15,CFKERIRSLLREWYLQDPYPNPSKKRELAQATGLTPTQVGNWFKNRRQRDR [T6I],0.288 ± 0.088
16,CFKERKRSLLREWYLQDPYPNPSKKRELAQATGLTPTQVGNWFKNRRQRDR [T6K],-0.513 ± 0.26
17,CFKERLRSLLREWYLQDPYPNPSKKRELAQATGLTPTQVGNWFKNRRQRDR [T6L],-0.16 ± 0.059
18,CFKERMRSLLREWYLQDPYPNPSKKRELAQATGLTPTQVGNWFKNRRQRDR [T6M],-0.115 ± 0.049
19,CFKERNRSLLREWYLQDPYPNPSKKRELAQATGLTPTQVGNWFKNRRQRDR [T6N],-0.409 ± 0.21
20,CFKERQRSLLREWYLQDPYPNPSKKRELAQATGLTPTQVGNWFKNRRQRDR [T6Q],-0.067 ± 0.21
21,CFKERRRSLLREWYLQDPYPNPSKKRELAQATGLTPTQVGNWFKNRRQRDR [T6R],-0.401 ± 0.072
22,CFKERSRSLLREWYLQDPYPNPSKKRELAQATGLTPTQVGNWFKNRRQRDR [T6S],-0.354 ± 0.091
23,CFKERVRSLLREWYLQDPYPNPSKKRELAQATGLTPTQVGNWFKNRRQRDR [T6V],0.057 ± 0.046
24,CFKERWRSLLREWYLQDPYPNPSKKRELAQATGLTPTQVGNWFKNRRQRDR [T6W],-0.434 ± 0.079
25,CFKERYRSLLREWYLQDPYPNPSKKRELAQATGLTPTQVGNWFKNRRQRDR [T6Y],-0.289 ± 0.3
